Reference: article PMC3882140

Biological target: CP-431C/mCherrySP141(C140A) P22 procapsid (bacteriophage P22) (UniProt P26747)
Experiment: pelleting by ultracentrifugation and resuspension

CP-431C/mCherrySP141(C140A) P22 procapsid (from UniProt P26747 1-430; P26748 141-303) (complex)
soluble capsid recovered after pelleting, relative to wtCP/mCherrySP141(C140A): 3%
